Laboratory results as given in patent publication US6509447B1, “G protein chimeras and methods of screening compounds” (Glaxo Welcome Inc., priority 1997, dated 2003).

Target: T1, serotonin 5HT1A receptor (Homo sapiens, UniProt P08908)
T1 construct: expressed in transfected cells; host or cells: Saccharomyces cerevisiae strains MMY9 and MMY11, plasmid pDT-PGK-5-HT1A
T1 sequence (P08908 1-422): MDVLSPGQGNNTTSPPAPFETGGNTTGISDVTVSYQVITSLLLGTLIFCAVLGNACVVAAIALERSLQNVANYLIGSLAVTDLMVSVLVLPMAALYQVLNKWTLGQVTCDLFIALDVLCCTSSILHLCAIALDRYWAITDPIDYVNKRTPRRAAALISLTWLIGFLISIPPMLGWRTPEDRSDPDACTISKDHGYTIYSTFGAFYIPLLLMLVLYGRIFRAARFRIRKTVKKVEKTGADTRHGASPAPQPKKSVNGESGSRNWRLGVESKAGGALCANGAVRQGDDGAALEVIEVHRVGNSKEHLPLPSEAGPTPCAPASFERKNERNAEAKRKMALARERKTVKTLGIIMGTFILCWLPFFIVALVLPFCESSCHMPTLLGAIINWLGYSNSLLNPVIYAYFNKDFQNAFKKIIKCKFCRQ
Test: CPRG assay, MMY9 cells expressing 5-HT1A receptor plus Gα subunit
Assay type: cell-based
Parameters: key to coupling class where no EC50 could be fitted: weak activation insufficient to carry out curve-fitting was detected; NC: no coupling was detected
Description: Assay for combined FUS1-lacZ and FUS1-HIS3 Expression. In vivo assays of reporter gene induction (CPRG assays) were carried out by suspending cells to 0.02 OD600 in 200 μl SC-glucose (2%) lacking tryptophan, uracil and histidine. This medium was supplemented with agonists, and additionally 10 mM 3-aminotriazole and the β-galactosidase (lacZ) substrate chlorophenolred-β-D-galactopyranoside (CPRG; Boehringer) to a concentration of 0.1 mg/ml. To visualise the colour change reaction, the medium was buffered to pH 7 with 0.1 M sodium phosphate. The assay was conducted in a 96-well microtitre plate format. Plates were incubated for 24 hours without agitation, and absorbance at 570 nm was determined using a Victor microtitre plate reader (Wallac). EC50 values (+/−standard error) were estimated by curve-fitting, using the Robosage software package.
This experiment illustrates that, for certain receptors, the efficiency of coupling to the yeast pheromone response pathway can be enhanced by creating chimeras between yeast and mammalian Gα subunits. […] Agonist-dependent activation of FUS1-lacZ was determined by incubating cells in medium supplemented with the chromogenic, cell-permeant β-galacosidase (lacZ) substrate, chlorophenolred-β-D-galactopyranoside (CPRG; Boehringer Mannheim). […]

B1: Gpa1p: endogenous yeast Gα subunit, product of the GPA1 gene (protein, UniProt P08539 2-472, looked up)
Guanine nucleotide-binding …: GCTVSTQTIGDESDPFLQNKRANDVIEQSLQLEKQRDKNEIKLLLLGAGESGKSTVLKQLKLLHQGGFSHQERLQYAQVIWADAIQSMKILIIQARKLGIQLDCDDPINNKDLFACKRILLKAKALDYINASVAGGSDFLNDYVLKYSERYETRRRVQSTGRAKAAFDEDGNISNVKSDTDRDAETVTQNEDADRNNSSRINLQDICKDLNQEGDDQMFVRKTSREIQGQNRRNLIHEDIAKAIKQLWNNDKGIKQCFARSNEFQLEGSAAYYFDNIEKFASPNYVCTDEDILKGRIKTTGITETEFNIGSSKFKVLDAGGQRSERKKWIHCFEGITAVLFVLAMSEYDQMLFEDERVNRMHESIMLFDTLLNSKWFKDTPFILFLNKIDLFEEKVKSMPIRKYFPDYQGRVGDAEAGLKYFEKIFLSLNKTNKPIYVKRTCATDTQTMKFVLSAVTDLIIQQNLKKIGII
  agonist-dependent induction of FUS1-LacZ / coupling, in words: failed to signal
  coupling class where no EC50 could be fitted: NC
